Measured values reported in US20230057987A1 (published 2023).

How the values were obtained:
[1] = molecular target: CT45-IP antigenic peptide (…) in complex with HLA-A*02 presented on cells (peptide-loaded T2 cells; NCIH1703 and A375 tumor cells) (human); experiment: cell-based or functional assay
[2] = molecular target: T1, similar peptide SP-05-0004, source protein not stated peptide on HLA-A*02:01 (human); experiment: killing
T1 peptide: KIWEWLVGV

[3] = molecular target: T2, similar peptide SP-05-0003, source protein not stated peptide on HLA-A*02:01 (human); experiment: killing
T2 peptide: KVTEMLVNV

[4] = molecular target: T3, CT45-IP alanine variant, position 1 peptide on HLA-A*02:01 (human); experiment: killing
T3 peptide: AIFEMLEGV

[5] = molecular target: T4, similar peptide SP-05-0008, source protein not stated peptide on HLA-A*02:01 (human); experiment: killing
T4 peptide: KILDELEKV

[6] = molecular target: T5, similar peptide SP-05-0002, source protein not stated peptide on HLA-A*02:01 (human); experiment: killing
T5 peptide: KIFSGLLKV

[7] = molecular target: T6, CT45-IP alanine variant, position 8 peptide on HLA-A*02:01 (human); experiment: killing
T6 peptide: KIFEMLEAV

[8] = molecular target: T7, similar peptide SP-05-0007, source protein not stated peptide on HLA-A*02:01 (human); experiment: killing
T7 peptide: KIFPALCTV

[9] = molecular target: T8, similar peptide SP-05-0010, source protein not stated peptide on HLA-A*02:01 (human); experiment: killing
T8 peptide: RIFETVNSV

[10] = molecular target: T9, similar peptide SP-05-0005, source protein not stated peptide on HLA-A*02:01 (human); experiment: killing
T9 peptide: KIEEFLEAV

[11] = molecular target: T10, similar peptide SP-05-0009, source protein not stated peptide on HLA-A*02:01 (human); experiment: killing
T10 peptide: KIIDLLPKV

[12] = molecular target: T11, similar peptide SP-05-0006, source protein not stated peptide on HLA-A*02:01 (human); experiment: killing
T11 peptide: KIAELLENV

[13] = molecular target: T12, similar peptide SP-05-0001, source protein not stated peptide on HLA-A*02:01 (human); experiment: killing
T12 peptide: HIMEHLEGV

[14] = molecular target: CT45-IP-HLA-A*02 dextramer (human); experiment: flow cytometry, dextramer staining of TCR-mRNA electroporated T cells, gated on CD3+
[15] = molecular target: T13, CT45 (CT45A1, A2, A3, A5 to A10); CT45-IP peptide on HLA-A*02:01 (human); experiment: luciferase release, 24 h, 1:1; CD8+ T cells with TCR mRNA, T2 cells with titrated peptide; full-length, on cells
T13 peptide: KIFEMLEGV

[16] = molecular target: T13, CT45 (CT45A1, A2, A3, A5 to A10); …; experiment: CT45-IP-HLA-A*02 dextramer on T cells with TCR mRNA; TCR found by tetramer sorting; full-length, on cells
[17] = molecular target: T14, CT45-IP alanine variant, position 5 peptide on HLA-A*02:01 (human); experiment: killing
T14 peptide: KIFEALEGV

B1: TCR-2 (TCR, V domains shown)
Valpha: QKITQTQPGMFVQEKEAVTLDCTYDTSDQSYGLFWYKQPSSGEMIFLIYQGSYDEQNATEGRYSLNFQKARKSANLVISASQLGDSAMYFCAMREGSDAGGTSYGKLTFGQGTILTVHP
Vbeta: GVIQSPRHLIKEKRETATLKCYPIPRHDTVYWYQQGPGQDPQFLISFYEKMQSDKGSIPDRFSAQQFSDYHSELNMSSLELGDSALYFCASSPSTGRLNTEAFFGQGTRLTVV
B1 was tested, and the EC50, half maximal killing capacity (functional avidity; CT45-IP peptide titration on T2 cells, luciferase release) [1] was 4.69 nM, the binding result [2] was “no recognition” and the binding result [3] was “no recognition”. B1: recognises [4]; no recognition [5]; no recognition [6]. B1: recognises [7]; no recognition [8]; no recognition [9]. B1: no recognition [10]; no recognition [11]; no recognition [12]. For the same binder, the binding result [13] was “no recognition”, the surface expression, % positive events by CT45-IP-HLA-A2*02 dextramer staining [14] was 39.1% and the EC50 of peptide [15] was 4.69 nM. For the same binder, the dextramer-positive events [16] was 39.1%.

B2: TCR-15 (TCR, V domains shown)
Valpha: KQEVTQIPAALSVPEGENLVLNCSFTDSAIYNLQWFRQDPGKGLTSLLLIQSSQREQTSGRLNASLDKSSGRSTLYIAASQPGDSATYLCAVLLTGKLIFGQGTTLQVKP
Vbeta: GVTQTPRYLIKTRGQQVTLSCSPISGHRSVSWYQQTPGQGLQFLFEYFSETQRNKGNFPGRFSGRQFSNSRSEMNVSTLELGDSALYLCASSGGPGPSGEQYFGPGTRLTVT
In the case of B2, the EC50, half maximal killing capacity (functional avidity; CT45-IP peptide titration on T2 cells, luciferase release) [1] is reported as 18.6 nM, the binding result [2] is reported as “no recognition” and the binding result [3] is reported as “no recognition”. B2: no recognition [5]; no recognition [6]; recognises [7]. B2: no recognition [8]; no recognition [9]; no recognition [10]. B2: no recognition [11]; no recognition [12]; no recognition [13]. It also gave a surface expression, % positive events by CT45-IP-HLA-A2*02 dextramer staining [14] of 22.6%, an EC50 of peptide [15] of 18.6 nM and a dextramer-positive events [16] of 22.6%.

B3: TCR-1 (TCR, V domains shown)
Valpha: QTVTQSQPEMSVQEAETVTLSCTYDTSENNYYLFWYKQPPSRQMILVIRQEAYKQQNATENRFSVNFQKAAKSFSLKISDSQLGDTAMYFCAPLGLVAGSARQLTFGSGTQLTVLP
Vbeta: GVSQDPRHKITKRGQNVTFRCDPISEHNRLYWYRQTLGQGPEFLTYFQNEAQLEKSRLLSDRFSAERPKGSFSTLEIQRTEQGDSAMYLCASSTDITSYEQYFGPGTRLTVT
In the case of B3, the EC50, half maximal killing capacity (functional avidity; CT45-IP peptide titration on T2 cells, luciferase release) [1] is reported as 7.78 nM, the binding result [2] is reported as “no recognition” and the binding result [3] is reported as “no recognition”. B3: no recognition [5]; no recognition [6]; recognises [7]. B3: no recognition [8]; no recognition [9]; no recognition [10]. B3: no recognition [11]; no recognition [12]; no recognition [13]. It also gave a surface expression, % positive events by CT45-IP-HLA-A2*02 dextramer staining [14] of 8.9%, an EC50 of peptide [15] of 7.78 nM and a dextramer-positive events [16] of 8.9%.

B4: TCR-4 (TCR, V domains shown)
Valpha: QSVAQPEDQVNVAEGNPLTVKCTYSVSGNPYLFWYVQYPNRGLQFLLKYITGDNLVKGSYGFEAEFNKSQTSFHLKKPSALVSDSALYFCAAPRDDKIIFGKGTRLHILP
Vbeta: GVTQTPKFRVLKTGQSMTLLCAQDMNHEYMYWYRQDPGMGLRLIHYSVGEGTTAKGEVPDGYNVSRLKKQNFLLGLESAAPSQTSVYFCASSYLRTGGNEQFFGPGTRLTVL
For B4, the EC50, half maximal killing capacity (functional avidity; CT45-IP peptide titration on T2 cells, luciferase release) [1] was 1.31 nM, the binding result [2] was “no recognition” and the binding result [3] was “no recognition”. B4: recognises [4]; no recognition [5]; no recognition [6]. B4: no recognition [8]; no recognition [9]; no recognition [10]. B4: no recognition [11]; no recognition [12]; no recognition [13]. For the same binder, the binding result [17] was “recognises”, the surface expression, % positive events by CT45-IP-HLA-A2*02 dextramer staining [14] was 39.1% and the EC50 of peptide [15] was 1.31 nM. It also gave a dextramer-positive events [16] of 39.1%.

B5: TCR-3 (TCR, V domains shown)
Valpha: QKITQTQPGMFVQEKEAVTLDCTYDTSDQSYGLFWYKQPSSGEMIFLIYQGSYDEQNATEGRYSLNFQKARKSANLVISASQLGDSAMYFCGYSNYQLIWGAGTKLIIKP
Vbeta: QVTQNPRYLITVTGKKLTVTCSQNMNHEYMSWYRQDPGLGLRQIYYSMNVEVTDKGDVPEGYKVSRKEKRNFPLILESPSPNQTSLYFCASREGTGGYQPQHFGDGTRLSIL
B5 was tested, and the EC50, half maximal killing capacity (functional avidity; CT45-IP peptide titration on T2 cells, luciferase release) [1] was 1.02 nM, the binding result [2] was “no recognition” and the binding result [3] was “no recognition”. B5: recognises [4]; no recognition [5]; no recognition [6]. B5: recognises [7]; no recognition [8]; no recognition [9]. B5: no recognition [10]; no recognition [11]; no recognition [12]. The binding result [13] was “no recognition”, the surface expression, % positive events by CT45-IP-HLA-A2*02 dextramer staining [14] was 27.2% and the EC50 of peptide [15] was 1.02 nM. The dextramer-positive events [16] was 27.2%.

B6: TCR-13 (TCR, V domains shown)
Valpha: QKITQTQPGMFVQEKEAVTLDCTYDTSDQSYGLFWYKQPSSGEMIFLIYQGSYDEQNATEGRYSLNFQKARKSANLVISASQLGDSAMYFCAMSDPIMDTGRRALTFGSGTRLQVQP
Vbeta: GITQSPKYLFRKEGQNVTLSCEQNLNHDAMYWYRQDPGQGLRLIYYSQIVNDFQKGDIAEGYSVSREKKESFPLTVTSAQKNPTAFYLCASKSRGPNLADTQYFGPGTRLTVL
For B6, the EC50, half maximal killing capacity (functional avidity; CT45-IP peptide titration on T2 cells, luciferase release) [1] was 11.4 nM, the binding result [2] was “no recognition” and the binding result [3] was “no recognition”. B6: no recognition [5]; no recognition [6]; recognises [7]. B6: no recognition [8]; no recognition [9]; no recognition [10]. B6: no recognition [11]; no recognition [12]; no recognition [13]. The binding result [17] was “recognises”, the surface expression, % positive events by CT45-IP-HLA-A2*02 dextramer staining [14] was 53.1% and the EC50 of peptide [15] was 11.4 nM. For the same binder, the dextramer-positive events [16] was 53.1%.

B7: TCR-9 (TCR, V domains shown)
Valpha: EDVEQSLFLSVREGDSSVINCTYTDSSSTYLYWYKQEPGAGLQLLTYIFSNMDMKQDQRLTVLLNKKDKHLSLRIADTQTGDSAIYFCAEKETAGNKLTFGGGTRVLVKP
Vbeta: EPEVTQTPSHQVTQMGQEVILRCVPISNHLYFYWYRQILGQKVEFLVSFYNNEISEKSEIFDDQFSVERPDGSNFTLKIRSTKLEDSAMYFCASTVQSPRTNEQFFGPGTRLTVL
B7 was tested, and the EC50, half maximal killing capacity (functional avidity; CT45-IP peptide titration on T2 cells, luciferase release) [1] was 0.15 nM, the binding result [3] was “no recognition” and the binding result [5] was “no recognition”. B7: no recognition [6]; no recognition [8]; no recognition [9]. B7: no recognition [10]; no recognition [11]; no recognition [12]. For the same binder, the binding result [13] was “no recognition”, the surface expression, % positive events by CT45-IP-HLA-A2*02 dextramer staining [14] was 44% and the EC50 of peptide [15] was 0.15 nM. For the same binder, the dextramer-positive events [16] was 44%.
